Measurements: paper PMC7192624, “A Snu114–GTP–Prp8 module forms a relay station for efficient splicing in yeast” (Nucleic Acids Research, 2020)

B1: Prp8^SBR Δ421–468 (domain or fragment, yeast, UniProt P33334 315-555, looked up)
chain: STPLRDEVTDKNYYYLFDKKSFFNGKALNNAIPGGPKFEPLYPREEEEDYNEFNSIDRVIFRVPIRSEYKVAFPHLYNSRPRSVRIPWYNNPVSCIIQNDEEYDTPILPNTKDAMSLYHSPFPFNRTKGKMVRAQDVALAKKWFLQHPDEEYPVKVKVSYQKLLKNYVLNELHPTLPTNHNKTKLLKSLKNTK
notes: also called Prp8^Δ421–468; source: insect cells, co-produced with Snu114; complex purified; not shown: Strep tag (from the vector pFL-N-Strep), N-terminal, kept
B2: Prp8^SBR Δ402–406 (domain or fragment, yeast, UniProt P33334 315-555, looked up)
chain: STPLRDEVTDKNYYYLFDKKSFFNGKALNNAIPGGPKFEPLYPREEEEDYNEFNSIDRVIFRVPIRSEYKVAFPHLYNSRPRSVRIPVSCIIQNDEEYDTPALFFDPSLNPIPHFIDNNSSLNVSNTKENGDFTLPEDFAPLLAEEEELILPNTKDAMSLYHSPFPFNRTKGKMVRAQDVALAKKWFLQHPDEEYPVKVKVSYQKLLKNYVLNELHPTLPTNHNKTKLLKSLKNTK
notes: also called Prp8^Δ402–406; source: insect cells, co-produced with Snu114; complex purified; not shown: Strep tag (from the vector pFL-N-Strep), N-terminal, kept
B3: Prp8^SBR 402–406_5S (domain or fragment, yeast, UniProt P33334 315-555, looked up)
chain: STPLRDEVTDKNYYYLFDKKSFFNGKALNNAIPGGPKFEPLYPREEEEDYNEFNSIDRVIFRVPIRSEYKVAFPHLYNSRPRSVRIPSSSSSVSCIIQNDEEYDTPALFFDPSLNPIPHFIDNNSSLNVSNTKENGDFTLPEDFAPLLAEEEELILPNTKDAMSLYHSPFPFNRTKGKMVRAQDVALAKKWFLQHPDEEYPVKVKVSYQKLLKNYVLNELHPTLPTNHNKTKLLKSLKNTK
notes: also called Prp8^402–406_5S; source: insect cells, co-produced with Snu114; complex purified; not shown: Strep tag (from the vector pFL-N-Strep), N-terminal, kept
B4: Prp8^SBR Y403F (domain or fragment, yeast, UniProt P33334 315-555, looked up)
chain: STPLRDEVTDKNYYYLFDKKSFFNGKALNNAIPGGPKFEPLYPREEEEDYNEFNSIDRVIFRVPIRSEYKVAFPHLYNSRPRSVRIPWFNNPVSCIIQNDEEYDTPALFFDPSLNPIPHFIDNNSSLNVSNTKENGDFTLPEDFAPLLAEEEELILPNTKDAMSLYHSPFPFNRTKGKMVRAQDVALAKKWFLQHPDEEYPVKVKVSYQKLLKNYVLNELHPTLPTNHNKTKLLKSLKNTK
notes: also called Prp8^Y403F; source: insect cells, co-produced with Snu114; complex purified; not shown: Strep tag (from the vector pFL-N-Strep), N-terminal, kept
B5: Prp8^SBR Y403A (domain or fragment, yeast, UniProt P33334 315-555, looked up)
chain: STPLRDEVTDKNYYYLFDKKSFFNGKALNNAIPGGPKFEPLYPREEEEDYNEFNSIDRVIFRVPIRSEYKVAFPHLYNSRPRSVRIPWANNPVSCIIQNDEEYDTPALFFDPSLNPIPHFIDNNSSLNVSNTKENGDFTLPEDFAPLLAEEEELILPNTKDAMSLYHSPFPFNRTKGKMVRAQDVALAKKWFLQHPDEEYPVKVKVSYQKLLKNYVLNELHPTLPTNHNKTKLLKSLKNTK
notes: also called Prp8^Y403A; source: insect cells, co-produced with Snu114; complex purified; not shown: Strep tag (from the vector pFL-N-Strep), N-terminal, kept
B6: Prp8^SBR WY402-403AA (domain or fragment)
chain: not shown
notes: also called Prp8^WY402/3AA; source: insect cells, co-produced with Snu114; complex purified; not shown: Strep tag (from the vector pFL-N-Strep), N-terminal, kept
B7: Aar2 (natural protein, yeast, UniProt P32357 1-355, looked up)
chain: MNTVPFTSAPIEVTIGIDQYSFNVKENQPFHGIKDIPIGHVHVIHFQHADNSSMRYGYWFDCRMGNFYIQYDPKDGLYKMMEERDGAKFENIVHNFKERQMMVSYPKIDEDDTWYNLTEFVQMDKIRKIVRKDENQFSYVDSSMTTVQENELLKSSLQKAGSKMEAKNEDDPAHSLNYTVINFKSREAIRPGHEMEDFLDKSYYLNTVMLQGIFKNSSNYFGELQFAFLNAMFFGNYGSSLQWHAMIELICSSATVPKHMLDKLDEILYYQIKTLPEQYSDILLNERVWNICLYSSFQKNSLHNTEKIMENKYPELLGKDNEDDALIYGISDEERDDEDDEHNPTIVGGLYYQRP
notes: Aar2, U5 snRNP assembly factor, yeast; synthetic gene; source: complex purified (StrepTactin, Heparin, Mono Q, SEC); not shown: Strep tag (from the vector pIDK-C-Strep), C-terminal, kept
B8: Snu114^72-1008 (yeast Snu114 lacking the acidic N-terminal region) (domain or fragment, UniProt P36048 72-1008, looked up)
chain: KEVEVLMETKNTQSPQTPLVEPVTERTKLQEHTIFTQLKKNIPKTRYNRDYMLSMANIPERIINVGVIGPLHSGKTSLMDLLVIDSHKRIPDMSKNVELGWKPLRYLDNLKQEIDRGLSIKLNGSTLLCTDLESKSRMINFLDAPGHVNFMDETAVALAASDLVLIVIDVVEGVTFVVEQLIKQSIKNNVAMCFVINKLDRLILDLKLPPMDAYLKLNHIIANINSFTKGNVFSPIDNNIIFASTKLGFTFTIKEFVSYYYAHSIPSSKIDDFTTRLWGSVYYHKGNFRTKPFENVEKYPTFVEFILIPLYKIFSYALSMEKDKLKNLLRSNFRVNLSQEALQYDPQPFLKHVLQLIFRQQTGLVDAITRCYQPFELFDNKTAHLSIPGKSTPEGTLWAHVLKTVDYGGAEWSLVRIYSGLLKRGDTVRILDTSQSESRQKRQLHDISKTETSNEDEDEDDETPSCEVEEIGLLGGRYVYPVHEAHKGQIVLIKGISSAYIKSATLYSVKSKEDMKQLKFFKPLDYITEAVFKIVLQPLLPRELPKLLDALNKISKYYPGVIIKVEESGEHVILGNGELYMDCLLYDLRASYAKIEIKISDPLTVFSESCSNESFASIPVSNSISRLGEENLPGLSISVAAEPMDSKMIQDLSRNTLGKGQNCLDIDGIMDNPRKLSKILRTEYGWDSLASRNVWSFYNGNVLINDTLPDEISPELLSKYKEQIIQGFYWAVKEGPLAEEPIYGVQYKLLSISVPSDVNIDVMKSQIIPLMKKACYVGLLTAIPILLEPIYEVDITVHAPLLPIVEELMKKRRGSRIYKTIKVAGTPLLEVRGQVPVIESAGFETDLRLSTNGLGMCQLYFWHKIWRKVPGDVLDKDAFIPKLKPAPINSLSRDFVMKTRRRKGISTGGFMSNDGPTLEKYISAELYAQLRENGLVP
notes: synthetic gene; Co-purifies with endogenous GTP; source: insect cells (MultiBac baculovirus); co-produced with Prp8 constructs or alone; purified (StrepTactin, SEC); not shown: Strep tag (from the vector pIDS-C-Strep), C-terminal, kept
B9: Prp8 residues 315-555 (Prp8^SBR), chymotryptic fragment (domain or fragment, yeast, UniProt P33334 315-555, looked up)
chain: STPLRDEVTDKNYYYLFDKKSFFNGKALNNAIPGGPKFEPLYPREEEEDYNEFNSIDRVIFRVPIRSEYKVAFPHLYNSRPRSVRIPWYNNPVSCIIQNDEEYDTPALFFDPSLNPIPHFIDNNSSLNVSNTKENGDFTLPEDFAPLLAEEEELILPNTKDAMSLYHSPFPFNRTKGKMVRAQDVALAKKWFLQHPDEEYPVKVKVSYQKLLKNYVLNELHPTLPTNHNKTKLLKSLKNTK

The binders below were run against B8 (assay: SEC; two proteins co-produced in insect cells, both Strep-tagged; StrepTactin capture, then SEC on Superdex S200 in 10 mM TRIS-HCl pH 8.0, 300 mM NaCl, 2 mM DTT; co-purification of wt and variant complexes). Conditions: both partners purified.
B1: binds. B2: binds. B3: binds. B4: binds. B5: binds. B6: binds.

Each binder was assayed against T1, Prp8^132-2413 (large fragment of yeast Prp8 lacking the first 131 residues) (yeast, UniProt P33334 132-2413) (assay: SEC; three proteins co-produced in insect cells, all Strep-tagged; complex purified by StrepTactin, Heparin, Mono Q and SEC (Superose 6, 50 mM TRIS-HCl pH 8.5, 300 mM NaCl, 2 mM DTT); analytical gel filtration with SDS-PAGE of fractions). Conditions: both partners purified.
T1 construct: Prp8, yeast, residues 132-2413; synthetic gene; methods and results print 132-2413; source: complex purified (StrepTactin, Heparin, Mono Q, SEC); not shown: Strep tag (from the vector pFL-C-Strep), C-terminal, kept
B7: binds. B8: binds.

The binders below were run against B8 (assay: SEC; limited proteolysis of the purified trimeric complex with chymotrypsin (room temperature, 35 min), then SEC on Superose 6 Increase in 20 mM TRIS-HCl pH 8.5, 500 mM NaCl, 2 mM DTT; fragments identified by mass spectrometric fingerprinting and N-terminal sequencing). Conditions: both partners purified.
B9: binds.
